Paper PMC7505961

Target: 145-Tailless nucleosome (145 bp Widom 601 DNA with tailless histone mutants H4-del 1-20, H3-del 1-37, H2A-del 1-15 and H2B-del 1-31), P06897
Test: native gel or EMSA; FAM-labelled nucleosome (0.8 pmol; oligonucleosomes 0.1 pmol) mixed with different amounts of cGAS in 20 mM Tris-HCl pH 7.6, 60 mM NaCl, 5 mM MgCl2, total volume 10 ul; on ice 30 min; 1.5% agarose gel, 0.2x TBE; Kd from percent bound nucleosome against cGAS concentration
Details: remark: other sources report otherwise

B1: human cGAS (cGMP-AMP synthase), Q8N884 1-522 (enzyme)
chain: MQPWHGKAMQRASEAGATAPKASARNARGAPMDPTESPAAPEAALPKAGKFGPARKSGSRQKKSAPDTQERPPVRATGARAKKAPQRAQDTQPSDATSAPGAEGLEPPAAREPALSRAGSCRQRGARCSTKPRPPPGPWDVPSPGLPVSAPILVRRDAAPGASKLRAVLEKLKLSRDDISTAAGMVKGVVDHLLLRLKCDSAFRGVGLLNTGSYYEHVKISAPNEFDVMFKLEVPRIQLEEYSNTRAYYFVKFKRNPKENPLSQFLEGEILSASKMLSKFRKIIKEEINDIKDTDVIMKRKRGGSPAVTLLISEKISVDITLALESKSSWPASTQEGLRIQNWLSAKVRKQLRLKPFYLVPKHAKEGNGFQEETWRLSFSHIEKEILNNHGKSKTCCENKEEKCCRKDCLKLMKYLLEQLKERFKDKKHLDKFSSYHVKTAFFHVCTQNPQDSQWDRKDLGLCFDNCVTYFLQCLRTEKLENYFIPEFNLFSSNLIDKRSKEFLTKQIEYERNNEFPVFDEF
Kd: 79 nM
